Patent US20240424127A1 (BRIGHT PEAK THERAPEUTICS, published 2024)
Like-named read-outs stand apart in the source and are kept apart here. Bridges are numbered along the chain shown (N, C = ends). [ ]: non-standard residue; d: D form. glutaryl‑PEG9‑azide = glutaryl-PEG9-azide group on the N-terminal amine; L6P = lysine side chain carrying PEG6-NH2 (diglycolyl-PEG-amine); hSer = N[C@@H](CCO)C(=O)O; Nle = CCCC[C@H](N)C(=O)O

B1: CMP-036, synthetic IL-7 of SEQ ID NO: 3 (no N-terminal conjugation handle) (ligand)
chain: DCDIEGKDGKQYESVL[Nle]VSIDQLLDS[Nle]KEIGSNCL[hSer]NEFNFFKRHICDANKEG[Nle]FLFRAARKLRQFLK[Nle]NSTGDF[hSer]LHLLKVSEGTTILLNCTGQVKGRKPAALGEAQPTKSL[hSer]ENKSLKEQKKLNDLCFLKRLLQEIKTCWNKIL[Nle]GTKEH
modifications: ends and bridges not checked
B2: CMP-107, synthetic IL-7 V15W of SEQ ID NO: 5 with glutaryl-PEG9-azide at the N-terminus (ligand)
chain: {glutaryl‑PEG9‑azide}-DCDIEGKDGKQYESWL[Nle]VSIDQLLDS[Nle]KEIGSNCL[hSer]NEFNFFKRHICDANKEG[Nle]FLFRAARKLRQFLK[Nle]NSTGDF[hSer]LHLLKVSEGTTILLNCTGQVKGRKPAALGEAQPTKSL[hSer]ENKSLKEQKKLNDLCFLKRLLQEIKTCWNKIL[Nle]GTKEH-NH2
modifications: disulfide 34-129, 47-141, 2-92
notes: also called synthetic IL-7 with V15W
B3: CMP-200, IL-7 syntein missing C2-C92 disulphide bond, N-terminus with glutaric acid and azido-PEG (ligand)
chain: {glutaryl‑PEG9‑azide}-DSDIEGKDGKQYESVL[Nle]VSIDQLLDS[Nle]KEIGSNCL[hSer]NEFNFFKRHICDANKEG[Nle]FLFRAARKLRQFLK[Nle]NSTGDF[hSer]LHLLKVSEGTTILLNSTGQVKGRKPAALGEAQPTKSL[hSer]ENKSLKEQKKLNDLCFLKRLLQEIKTCWNKIL[Nle]GTKEH-NH2
modifications: disulfide 34-129, 47-141
notes: also called CMP-200-001
B4: CMP-201, synthetic IL-7 variant of Example 2V (ligand)
chain: {glutaryl‑PEG9‑azide}-DSDIEGKDGKQYESVL[Nle]VSIDQLLDS[Nle]KEIGSNCL[hSer]NEFNFFKRHICDANKEG[Nle]FLFRAARKLRQFLK[Nle]NSTGDF[hSer]LHLLKVSENTTILLNSTGQVKGRKPAALGEAQPTKSL[hSer]ENKSLKEQKKLNDLCFLKRLLQEIKTCWNKIL[Nle]GTKEH-NH2
modifications: disulfide 34-129, 47-141
B5: CMP-035, recombinant human native IL-7 with His-tag (ligand)
chain: DCDIEGKDGKQYESVLMVSIDQLLDSMKEIGSNCLNNEFNFFKRHICDANKEGMFLFRAARKLRQFLKMNSTGDFDLHLLKVSEGTTILLNCTGQVKGRKPAALGEAQPTKSLEENKSLKEQKKLNDLCFLKRLLQEIKTCWNKILMGTKEHVDHHHHHH
notes: also called WT IL-7 His; recombinant IL-7 (WT)
B6: CMP-117, recombinant IL-7 Q11F with His-tag (ligand)
chain: DCDIEGKDGKFYESVLMVSIDQLLDSMKEIGSNCLNNEFNFFKRHICDANKEGMFLFRAARKLRQFLKMNSTGDFDLHLLKVSEGTTILLNCTGQVKGRKPAALGEAQPTKSLEENKSLKEQKKLNDLCFLKRLLQEIKTCWNKILMGTKEHVDHHHHHH
B7: CMP-114, CMP-108 conjugated to 30 kDa DBCO PEG at the N-terminus (ligand)
chain: DCDIEGKDGKQYESVL[Nle]VSIDQLLDS[Nle]KEIGSNCL[hSer]NEFNFFKRHICDANKEG[Nle]FLFRAARKLRQFLK[Nle]NSTGDF[hSer]LHLLKVSEGTTILLNCTGQVKGRKPAALGEAQPTKSL[hSer]ENKSLKEQKKLNDLCFLKRLLQEIKTCWNKIL[Nle]GTKEH-NH2
modifications: disulfide 34-129, 47-141, 2-92; not fully specified (N-terminus); also: N-terminal azide conjugated to 30 kDa DBCO-PEG
B8: CMP-113, synthetic IL-7 C2A, C92A of SEQ ID NO: 10 with glutaryl-PEG9-azide at the N-terminus (ligand)
chain: {glutaryl‑PEG9‑azide}-DADIEGKDGKQYESVL[Nle]VSIDQLLDS[Nle]KEIGSNCL[hSer]NEFNFFKRHICDANKEG[Nle]FLFRAARKLRQFLK[Nle]NSTGDF[hSer]LHLLKVSEGTTILLNATGQVKGRKPAALGEAQPTKSL[hSer]ENKSLKEQKKLNDLCFLKRLLQEIKTCWNKIL[Nle]GTKEH
modifications: ends and bridges not checked
B9: CMP-111, synthetic IL-7 K81(L6P), G85N of SEQ ID NO: 8 with glutaryl-PEG9-azide at the N-terminus (ligand)
chain: {glutaryl‑PEG9‑azide}-DCDIEGKDGKQYESVL[Nle]VSIDQLLDS[Nle]KEIGSNCL[hSer]NEFNFFKRHICDANKEG[Nle]FLFRAARKLRQFLK[Nle]NSTGDF[hSer]LHLLK(L6P)VSENTTILLNCTGQVKGRKPAALGEAQPTKSL[hSer]ENKSLKEQKKLNDLCFLKRLLQEIKTCWNKIL[Nle]GTKEH-NH2
modifications: disulfide 34-129, 47-141, 2-92
B10: CMP-202, synthetic IL-7 variant of Example 2W (ligand)
chain: {glutaryl‑PEG9‑azide}-DSDIEGKDGKQYESVL[Nle]VSIDQLLDS[Nle]KEIGSNCL[hSer]NEFNFFKRHICDANKEG[Nle]FLFRAARKLRQFLK[Nle]NSTGDF[hSer]LHLLK(L6P)VSENTTILLNSTGQVKGRKPAALGEAQPTKSL[hSer]ENKSLKEQKKLNDLCFLKRLLQEIKTCWNKIL[Nle]GTKEH-NH2
modifications: disulfide 34-129, 47-141

How the values were obtained:
[1] = target: T1, IL-7 receptor (IL-7Rα/γc heterodimer) on primary human T cells (human, UniProt P16871 21-459; P31785 23-369); assay: cell-based or functional assay
T1 sequence (looked up) 1: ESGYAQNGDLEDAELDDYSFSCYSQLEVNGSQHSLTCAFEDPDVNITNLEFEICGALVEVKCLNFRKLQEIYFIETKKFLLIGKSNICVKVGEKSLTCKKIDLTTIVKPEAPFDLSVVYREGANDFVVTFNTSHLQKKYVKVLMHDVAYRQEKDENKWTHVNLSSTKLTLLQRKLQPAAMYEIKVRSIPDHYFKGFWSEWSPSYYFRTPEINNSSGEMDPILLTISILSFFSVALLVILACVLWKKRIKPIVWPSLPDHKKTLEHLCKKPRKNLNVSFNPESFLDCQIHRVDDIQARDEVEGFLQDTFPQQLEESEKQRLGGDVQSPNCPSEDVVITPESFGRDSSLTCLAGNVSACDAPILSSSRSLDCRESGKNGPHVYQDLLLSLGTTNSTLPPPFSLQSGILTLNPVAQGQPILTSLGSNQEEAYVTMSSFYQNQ
T1 sequence (looked up) 2: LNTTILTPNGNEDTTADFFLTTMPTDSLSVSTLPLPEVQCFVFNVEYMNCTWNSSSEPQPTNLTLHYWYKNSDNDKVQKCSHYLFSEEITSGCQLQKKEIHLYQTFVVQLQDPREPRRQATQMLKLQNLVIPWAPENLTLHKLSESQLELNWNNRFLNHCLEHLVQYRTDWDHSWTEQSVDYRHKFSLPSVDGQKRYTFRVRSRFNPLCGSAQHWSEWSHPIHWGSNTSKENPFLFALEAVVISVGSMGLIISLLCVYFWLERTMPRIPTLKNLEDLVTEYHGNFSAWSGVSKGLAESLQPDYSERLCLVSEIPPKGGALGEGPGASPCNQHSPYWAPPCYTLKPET

[2] = target: T2, Recombinant Human IL-7R alpha/CD127 Fc Avi-tag Protein, CF (R&D Systems #AVI10317-050) (human, UniProt P16871 21-239); assay: BLI (Octet R8); CD127-Fc-Avi loaded on SAX2 sensor, IL-7 polypeptide as analyte
T2 construct: Bought construct; It was loaded on streptavidin (SAX/SAX2) biosensors; not shown: Fc and Avi-tag of a bought protein
T2 sequence (looked up): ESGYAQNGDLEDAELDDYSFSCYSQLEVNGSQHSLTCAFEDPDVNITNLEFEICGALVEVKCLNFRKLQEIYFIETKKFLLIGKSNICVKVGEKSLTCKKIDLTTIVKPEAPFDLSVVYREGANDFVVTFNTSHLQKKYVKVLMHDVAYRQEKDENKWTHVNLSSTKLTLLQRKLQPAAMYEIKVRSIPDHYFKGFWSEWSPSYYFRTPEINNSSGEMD

[3] = target: T2, Recombinant Human IL-7R alpha/CD127 Fc …; assay: as above; remark: listed apart in the source
[4] = target: T2, Recombinant Human IL-7R alpha/CD127 Fc …; assay: as above; remark: listed apart in the source
[5] = target: T2, Recombinant Human IL-7R alpha/CD127 Fc …; assay: as above; remark: listed apart in the source
[6] = target: T2, Recombinant Human IL-7R alpha/CD127 Fc …; assay: as above; remark: listed apart in the source
[7] = target: T2, Recombinant Human IL-7R alpha/CD127 Fc …; assay: as above; remark: listed apart in the source
[8] = target: T2, Recombinant Human IL-7R alpha/CD127 Fc …; assay: as above; remark: listed apart in the source

Row | Binder | EC50 pSTAT5, CD4 Memory [1] | EC50 pSTAT5, CD4 Naive [1] | EC50 pSTAT5, CD4 Treg [1] | EC50 pSTAT5, CD8 Memory [1] | EC50 pSTAT5, CD8 Naive [1] | further results
1 | B1 | 5 pM | 5 pM | 15 pM | 6 pM | 6 pM | 
2 | B2 | 0.4 pM | 1 pM | 1.2 nM | 34 pM | 6 pM | Kd [2]: 22.5 nM; koff [2]: 0.0259 s⁻¹; kon [2]: 1.15e+06 M⁻¹ s⁻¹
3 | B3 | 30 pM | 20 pM | 0.14 nM | 40 pM | 30 pM | Kd [3]: 7.18 nM; koff [3]: 0.00879 s⁻¹; kon [3]: 1.22e+06 M⁻¹ s⁻¹
4 | B4 | 0.7 nM | 0.8 nM | 4.45 nM | 1.7 nM | 1.2 nM | Kd [4]: 19.2 nM; koff [4]: 0.00996 s⁻¹; kon [4]: 518000 M⁻¹ s⁻¹
5 | B5 | 1 pM | 1 pM | 32 pM | 6 pM | 2 pM | Kd [5]: 1.28 nM; koff [5]: 0.00698 s⁻¹; kon [5]: 5.47e+06 M⁻¹ s⁻¹
6 | B6 | 1 pM | 1 pM | 10 pM | 2 pM | 1 pM | 
7 | B7 | 4 pM | 2 pM | 10 pM | 4 pM | 5 pM | 
8 | B8 | 40 pM | 40 pM | 0.18 nM | 60 pM | 50 pM | 
9 | B9 | 11.2 nM | 11.6 nM | 82.3 nM | 16.2 nM | 12.3 nM | koff [6]: 0.0353 s⁻¹; kon [6]: 1.41e+06 M⁻¹ s⁻¹; Kd [7]: 16.5 nM; koff [7]: 0.0318 s⁻¹; kon [7]: 1.92e+06 M⁻¹ s⁻¹
10 | B10 | 38.1 nM | 18.9 nM | 32.7 nM | 37.4 nM | 20.4 nM | Kd [8]: 25.4 nM; koff [8]: 0.00997 s⁻¹; kon [8]: 393000 M⁻¹ s⁻¹
